Molecular target: AAV-DJ capsid proteins VP2 and VP3 (capsid shell) (adeno-associated virus, AAV-DJ (engineered capsid))
Assay: co-sedimentation

Substance: AAV-DJ capsid protein VP1 (wild type) (natural protein)
- VP1 copies per 60-mer capsid (VP1 copies per 60-mer capsid): 3

Reference: article PMC10661864
